The values that follow are results of earlier work, collected in publication PMC4958339.

Series [1] deals with Lgl (UniProt P08111).
Series [2] deals with Pins/LGN (UniProt Q8VDU0).
Sequence of UniProt Q8VDU0 (Q8VDU0 392-414): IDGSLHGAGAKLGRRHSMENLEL

Sequence of UniProt P08111 (P08111 648-670): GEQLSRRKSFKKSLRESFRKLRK

In the case of Dlg GUK (from UniProt Q12959), the values for the Kd in series [1] and in series [2] were 10.2 µM and 0.33 µM, respectively.

A word on the Kd: it is the constant that tells how readily two partners part at equilibrium.
